Laboratory results as given in PMC4591933 (Cancer research, 2008).

Biological target: EGFR-NLuc (human EGF receptor fused to the N-terminal fragment of firefly luciferase) (human, UniProt P00533 25-1210)
Experiment: split reporter

B1: Shc-CLuc (human p52Shc fused to the C-terminal fragment of firefly luciferase) (natural protein, UniProt P29353-2 1-473, looked up)
chain: MNKLSGGGGRRTRVEGGQLGGEEWTRHGSFVNKPTRGWLHPNDKVMGPGVSYLVRYMGCVEVLQSMRALDFNTRTQVTREAISLVCEAVPGAKGATRRRKPCSRPLSSILGRSNLKFAGMPITLTVSTSSLNLMAADCKQIIANHHMQSISFASGGDPDTAEYVAYVAKDPVNQRACHILECPEGLAQDVISTIGQAFELRFKQYLRNPPKLVTPHDRMAGFDGSAWDEEEEEPPDHQYYNDFPGKEPPLGGVVDMRLREGAAPGAARPTAPNAQTPSHLGATLPVGQPVGGDPEVRKQMPPPPPCPGRELFDDPSYVNVQNLDKARQAVGGAGPPNPAINGSAPRDLFDMKPFEDALRVPPPPQSVSMAEQLRGEPWFHGKLSRREAEALLQLNGDFLVRESTTTPGQYVLTGLQSGQPKHLLLVDPEGVVRTKDHRFESVSHLISYHMDNHLPIISAGSELCLQQPVERKL
  fold induction of reconstituted luciferase over control, 15 min after EGF: 2.5 fold over control
